Data published in patent publication US20230212587A1, “Mutant Hydroxyphenylpyruvate Dioxygenase Polypeptide, Encoding Gene Thereof and Use Therefor” (Beijing Dabeinong Biotechnology Co., Ltd., priority 2019, published 2023).
Where a chain is given by its changes, count along the chain named. Names may count otherwise.

B1: GsHPPDm-F372V: Gossypium hirsutum HPPD mutant F372V, SEQ ID NO: 351 (protein)
chain: MVQTNQSGSGNDFKLVGFSNFVRSNPKSDRFTVKRFHHIEFWCTDATNVARRFSWGLGMQFVAKSDLSTGNLTHASYLLRSRDLNFLFTAPYSPSIAVAQNLSPQSTASIPSFDHSLCRSFAATHGLGVRAIAIEVDDAETAFTTSVTHGALPFCPPTPLGDVATIAEVKLYGDVVLRYVSYTTTINSDHDFLPGFEKIEDTLSYPLDYGLRRLDHAVGNVPELGPAVSYVKSFTGFHEFAEFTAEDVGTSESGLNSVVLANNEEMVLLPMNEPVFGTKRKSQIQTYLEHNEGAGVQHLALVSEDIFKTLREMRKRSFVGGFEFMPSPPPTYYKKLKQRAGDILSDEQIKECEELGILVDRDDQGTLLQIVTKPVGDRPTIFIEIIQRIGCMVKDEEGKQYQKGGCGGFGKGNFSELFKSIEEYEKSLEAKQSQNP
modifications: GsHPPDm-F372V Amino Acid Sequence
B2: N5HPPDm-F372V: Sphingobium sp. N5 HPPD mutant F372V, SEQ ID NO: 397 (protein)
chain: MAADSENPLGLHGFAFAEFTSPDPAAMARQFEQLGFVPAARRKDRGLTLYRQGRIAFILNAGEGEQASAFRAAHGPSANGMAFNVADAKAAHRHAIQSGATDADTAQSALPGTYAIEGIGDSLLYLVDSDPFADWDEVPGWREASAERGVGLDLLDHLTHNVRRGQMRVWSEFYATLFGFEEQKFFDIKGQATGLFSQAMIAPDHEIRIPLNESQDDNSQIEEFIREYNGEGIQHLALTTPDIYSTVEKLRANGVRLQDTIDTYYDLVDERVPGHGEDLARLRKNRILIDGDVHDEGLLLQIVTETMFGPIFFEIIQRKGNEGFGNGNFQVLFESIELDQIRRGVVTVDA
modifications: N5HPPDm-F372V Amino Acid Sequence
B3: N3HPPDm-F372V: Burkholderia sp. N3 HPPD mutant F372V, SEQ ID NO: 393 (protein)
chain: MQIPNWENPVGTDGFEFIEYTAPDPKALGQLFERMGFTAIARHRHKDVTVYRQGDINFIINAEPHSFAQRFARLHGPSICAIAFRVQDAAKAYQHALELGAWGFDNKTGPMELNIPAIKGIGDSLIYFVDRWRGKNGAQPGAIGDISIYDVDFEPIAGANPNPAGHGLTYIDHLTHNVHRGRMQEWAEFYERLFNFREVRYFDIEGKVTGVKSKAMTSPCGKIRIPINEEGSDTAGQIQEYLDAYHGEGIQHIALGTNDIYGAVDGLRGKEVKLLDTIDTYYELVDRRVPDHGESLDELKKRKILIDGARDDLLLQIVTENQIGPIFFEIIQRKGNQGFGEGNFKALFESIELDQIRRGVVQDKA
modifications: N3HPPDm-F372V Amino Acid Sequence
B4: N4HPPDm-F372V: Burkholderia sp. N4 HPPD mutant F372V, SEQ ID NO: 395 (protein)
chain: B3 chain with H65D, N160T, N258S, N343T
modifications: N4HPPDm-F372V Amino Acid Sequence
B5: TaHPPDm-F372V: Triticum aestivum HPPD mutant F372V, SEQ ID NO: 353 (protein)
chain: MPPTPTTPAATGAGAAAAVTPEHARPRRMVRFNPRSDRFHTLSFHHVEFWCADAASAAGRFAFALGAPLAARSDLSTGNSVHASQLLRSGNLAFLFTAPYANGCDAATASLPSFSADAARRFSADHGLAVRSIALRVADAAEAFRASVDGGARPAFSPVDLGRGFGFAEVELYGDVVLRFVSHPDGTDVPFLPGFEGVSNPGAVDYGLTRFDHVVGNVPELASAAAYVAGFTGFHEFAEFTTEDVGTAESGLNSMVLANNSEGVLLPLNEPVHGTKRRSQIQTFLEHHGGPGVQHIAVASSDVLRTLREMRARSAMGGFDFLPPPLPKYYEGVRRIAGDVLSEAQIKECQELGVLVDRDDQGVLLQIVTKPVGDRPTLFLEMIQRIGCMEKDERGEEYQKGGCGGFGKGNFSELFKSIEDYEKSLEAKQSAAVQGS
modifications: TaHPPDm-F372V Amino Acid Sequence

Each molecule was assayed on Arabidopsis thaliana T1 plants (assay: Topramezone tolerance of transgenic Arabidopsis thaliana T1 plants (pesticide damage grade by bleached leaf area, score, resistance evaluation)). Conditions: topramezone 25 g ai/ha (1x); HPPD F372V mutants, Table 7.
Assay type: in vivo
Outline: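 Eighteen days after sowing, wild-type and HPPD-transgenic T1 Arabidopsis receive a topramezone spray at 1×, 2× or 4× field rate (25–100 g ai/ha) or water. Seven days later each plant is graded by its proportion of bleached leaf area.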

| Molecule | Resistance evaluation |
| --- | --- |
| B1 | Moderately resistant |
| B2 | Highly resistant |
| B3 | Highly resistant |
| B4 | Highly resistant |
| B5 | Highly resistant |

Same assay, conditions: topramezone 100 g ai/ha (4x); HPPD F372V mutants, Table 7

| Molecule | Resistance evaluation |
| --- | --- |
| B1 | Non-resistant |
| B2 | Highly resistant |
| B3 | Highly resistant |
| B4 | Highly resistant |
| B5 | Moderately resistant |
